# Data as given in article PMC3695765.
# Molecular target: FLAG-ZO-2 (UniProt Q9UDY2)
# Assay: GST pull-down from cell lysate
# Conditions: reference: GST-OccC not prephosphorylated; sites T400,T404,S408
substance,measurement,value
"occludin C-terminal cytoplasmic tail, 263-523 (from UniProt Q16625) GST-OccC prephosphorylated by CK2",binding against the reference,weaker
